{"source": "paper PMC11861898", "about": "(Communications Biology, 2025)", "key": {"[1]": {"biological_target": "T1, human CIB2 1-187 (calcium- and integrin-binding protein 2), wild type (human, UniProt O75838 1-187)", "T1 sequence": "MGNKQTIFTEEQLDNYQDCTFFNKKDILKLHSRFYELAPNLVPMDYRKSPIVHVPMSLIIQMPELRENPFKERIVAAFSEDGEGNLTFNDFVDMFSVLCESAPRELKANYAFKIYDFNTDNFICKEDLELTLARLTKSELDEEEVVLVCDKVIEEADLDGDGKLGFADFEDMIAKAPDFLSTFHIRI", "experiment": "ITC"}, "human CIB2 1-187 F21Q": {"biological_target": "T2, human CIB2 1-187 F21Q (human, UniProt O75838 1-187, F21Q)", "T2 sequence": "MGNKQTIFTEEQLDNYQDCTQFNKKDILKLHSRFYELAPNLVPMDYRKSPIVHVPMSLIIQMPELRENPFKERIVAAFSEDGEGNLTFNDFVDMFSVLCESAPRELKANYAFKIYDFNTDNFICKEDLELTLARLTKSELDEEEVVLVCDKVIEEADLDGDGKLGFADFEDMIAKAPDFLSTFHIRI", "experiment": "ITC + SEC"}, "human CIB2 1-187 E11R": {"biological_target": "T3, human CIB2 1-187 E11R (human, UniProt O75838 1-187, E11R)", "T3 sequence": "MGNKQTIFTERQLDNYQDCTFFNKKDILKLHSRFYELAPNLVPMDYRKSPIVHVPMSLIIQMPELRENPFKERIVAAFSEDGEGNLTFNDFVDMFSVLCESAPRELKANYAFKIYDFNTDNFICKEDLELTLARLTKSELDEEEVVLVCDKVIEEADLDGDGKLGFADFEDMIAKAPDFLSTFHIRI", "experiment": "ITC + SEC"}, "[2]": {"biological_target": "T4, human CIB2 E64D (deafness-related variant) (human, UniProt O75838 1-187, E64D)", "T4 sequence": "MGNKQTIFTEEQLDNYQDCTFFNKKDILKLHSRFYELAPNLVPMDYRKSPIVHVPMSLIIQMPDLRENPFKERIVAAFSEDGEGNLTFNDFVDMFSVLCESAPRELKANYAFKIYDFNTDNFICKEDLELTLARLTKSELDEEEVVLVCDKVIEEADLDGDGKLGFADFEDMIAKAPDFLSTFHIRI", "experiment": "ITC"}, "[3]": {"biological_target": "T5, human CIB2 R186W (deafness-related variant) (human, UniProt O75838 1-187, R186W)", "T5 sequence": "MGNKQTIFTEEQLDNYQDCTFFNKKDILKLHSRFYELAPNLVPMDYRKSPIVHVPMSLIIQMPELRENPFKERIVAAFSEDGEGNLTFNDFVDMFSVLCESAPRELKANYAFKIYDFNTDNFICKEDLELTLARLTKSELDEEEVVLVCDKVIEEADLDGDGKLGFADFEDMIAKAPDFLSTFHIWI", "experiment": "ITC"}, "[4]": {"biological_target": "T6, human CIB2 1-187 Q17A/T20A (human, UniProt O75838 1-187, Q17A | T20A)", "T6 sequence": "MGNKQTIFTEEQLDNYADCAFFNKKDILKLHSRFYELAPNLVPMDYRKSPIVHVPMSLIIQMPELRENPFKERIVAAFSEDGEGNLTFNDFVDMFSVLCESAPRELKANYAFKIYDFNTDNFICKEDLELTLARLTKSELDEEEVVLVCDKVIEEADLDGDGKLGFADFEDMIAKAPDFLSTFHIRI", "experiment": "ITC"}, "[5]": {"biological_target": "T7, human CIB2 1-187 D127A/D168A (EF-hand double mutant) (human, UniProt O75838 1-187, D127A | D168A)", "T7 sequence": "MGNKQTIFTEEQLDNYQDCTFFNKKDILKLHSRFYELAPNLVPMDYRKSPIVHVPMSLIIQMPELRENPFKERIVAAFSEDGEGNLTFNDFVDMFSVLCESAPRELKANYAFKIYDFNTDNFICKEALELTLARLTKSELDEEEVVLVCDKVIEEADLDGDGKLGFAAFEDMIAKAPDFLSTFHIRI", "experiment": "ITC"}, "[6]": {"biological_target": "T8, human CIB2 Y115C (deafness-related variant) (human, UniProt O75838 1-187, Y115C)", "T8 sequence": "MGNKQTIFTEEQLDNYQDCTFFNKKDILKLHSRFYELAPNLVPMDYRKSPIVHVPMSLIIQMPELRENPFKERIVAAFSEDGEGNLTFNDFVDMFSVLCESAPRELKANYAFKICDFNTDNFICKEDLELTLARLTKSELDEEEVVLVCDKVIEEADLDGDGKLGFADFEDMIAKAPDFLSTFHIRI", "experiment": "ITC"}, "mouse CIB3": {"biological_target": "T9, mouse CIB3 (mouse, UniProt A0A5F8MPX9 1-187)", "T9 sequence": "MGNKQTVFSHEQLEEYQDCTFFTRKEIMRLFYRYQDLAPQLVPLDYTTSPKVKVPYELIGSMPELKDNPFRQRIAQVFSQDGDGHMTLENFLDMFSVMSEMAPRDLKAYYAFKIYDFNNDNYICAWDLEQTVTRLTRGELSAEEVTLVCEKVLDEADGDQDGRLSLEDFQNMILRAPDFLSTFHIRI", "experiment": "ITC"}, "[7]": {"biological_target": "T10, human CIB2 R66W (deafness-related variant) (human, UniProt O75838 1-187, R66W)", "T10 sequence": "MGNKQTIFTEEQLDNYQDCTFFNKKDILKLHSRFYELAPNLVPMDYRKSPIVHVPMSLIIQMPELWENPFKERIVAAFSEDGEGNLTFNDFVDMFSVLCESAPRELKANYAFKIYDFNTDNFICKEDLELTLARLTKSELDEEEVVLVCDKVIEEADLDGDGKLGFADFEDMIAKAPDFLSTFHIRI", "experiment": "ITC"}, "[8]": {"biological_target": "T11, human CIB2 I123T (deafness-related variant) (human, UniProt O75838 1-187, I123T)", "T11 sequence": "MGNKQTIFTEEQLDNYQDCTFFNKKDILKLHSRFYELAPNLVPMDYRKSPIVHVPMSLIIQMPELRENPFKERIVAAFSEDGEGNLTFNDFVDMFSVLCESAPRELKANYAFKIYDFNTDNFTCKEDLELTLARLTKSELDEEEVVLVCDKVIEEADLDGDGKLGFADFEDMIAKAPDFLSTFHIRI", "experiment": "ITC"}, "[9]": {"biological_target": "T1, human CIB2 1-187 (calcium- and …)", "experiment": "SEC-MALS"}, "[10]": {"biological_target": "T4, human CIB2 E64D (deafness-related …)", "experiment": "pull-down"}, "[11]": {"biological_target": "T5, human CIB2 R186W (deafness-related …)", "experiment": "pull-down"}, "[12]": {"biological_target": "T8, human CIB2 Y115C (deafness-related …)", "experiment": "pull-down"}, "[13]": {"biological_target": "T10, human CIB2 R66W (deafness-related …)", "experiment": "pull-down"}, "[14]": {"biological_target": "T11, human CIB2 I123T (deafness-related …)", "experiment": "pull-down"}, "[15]": {"biological_target": "T1, human CIB2 1-187 (calcium- and …)", "experiment": "ITC + SEC"}, "[16]": {"biological_target": "T12, human CIB2 F91S (deafness-related variant) (human, UniProt O75838 1-187, F91S)", "T12 sequence": "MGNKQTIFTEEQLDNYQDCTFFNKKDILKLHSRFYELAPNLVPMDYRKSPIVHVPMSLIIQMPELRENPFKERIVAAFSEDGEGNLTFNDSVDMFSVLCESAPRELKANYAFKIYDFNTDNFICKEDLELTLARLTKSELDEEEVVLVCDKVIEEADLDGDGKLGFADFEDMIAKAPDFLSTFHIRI", "experiment": "pull-down"}, "[17]": {"biological_target": "T12, human CIB2 F91S (deafness-related …)", "experiment": "ITC"}}, "data": [{"binder": "ELDEKRQIIATVKCKPWKMEKKIEVLKEAKKFVSENEGALGK (domain or fragment)", "note": "[human TMC1 fragment 95-136]", "values": [{"measurement": "Kd", "setting": "[1]", "result": "~4600", "unit": "nM"}]}, {"binder": "human TMC2 CBD-1 (aa 150-200) (domain or fragment) EEELAQILEQVEEKKKLIATMRSKPWPMAKKLTELREAQEFVEKYEGALGK", "values": [{"measurement": "Kd", "setting": "[1]", "result": "~600", "unit": "nM"}]}, {"binder": "human TMC1 CBD-1 (CIB binding domain-1), residues 86-136 (domain or fragment) EEELERLKAELDEKRQIIATVKCKPWKMEKKIEVLKEAKKFVSENEGALGK", "values": [{"measurement": "binding result", "setting": "human CIB2 1-187 F21Q", "result": "binds"}, {"measurement": "binding result", "setting": "human CIB2 1-187 E11R", "result": "binds"}, {"measurement": "Kd", "setting": "[1]", "result": "~300", "unit": "nM"}, {"measurement": "binding result", "setting": "[2]", "result": "binds"}, {"measurement": "binding result", "setting": "[3]", "result": "binds"}, {"measurement": "fold decrease in binding affinity against wild-type CIB2", "setting": "[4]", "result": "> 15", "unit": "fold"}, {"measurement": "binding result", "setting": "[5]", "result": "binds"}, {"measurement": "binding result", "setting": "[6]", "result": "binds"}, {"measurement": "binding result", "setting": "mouse CIB3", "result": "binds"}, {"measurement": "binding result", "setting": "[7]", "result": "binds"}, {"measurement": "binding result", "setting": "[8]", "result": "binds"}, {"measurement": "stoichiometry N", "setting": "[9]", "result": 1}]}, {"binder": "GST-tagged human TMC1 CBD-1 (86-136) (domain or fragment) EEELERLKAELDEKRQIIATVKCKPWKMEKKIEVLKEAKKFVSENEGALGK", "values": [{"measurement": "binding result", "setting": "[10]", "result": "binds"}, {"measurement": "binding result", "setting": "[11]", "result": "binds"}, {"measurement": "binding result", "setting": "[12]", "result": "binds"}, {"measurement": "binding result", "setting": "[13]", "result": "binds"}, {"measurement": "binding result", "setting": "[14]", "result": "binds"}]}, {"binder": "human TMC1 CBD-1 (86-136) K107A (domain or fragment) EEELERLKAELDEKRQIIATVACKPWKMEKKIEVLKEAKKFVSENEGALGK", "values": [{"measurement": "binding result", "setting": "[15]", "result": "binds"}]}, {"binder": "human TMC1 CBD-1 (86-136) K121E (domain or fragment) EEELERLKAELDEKRQIIATVKCKPWKMEKKIEVLEEAKKFVSENEGALGK", "values": [{"measurement": "binding result", "setting": "[15]", "result": "binds"}]}, {"binder": "GST-tagged human TMC1 CBD-2 (298-359) (domain or fragment) KNIGDDGGGDDNTFNFSWKVFTSWDYLIGNPETADNKFNSITMNFKEAITEEKAAQVEENVH", "values": [{"measurement": "binding result", "setting": "[11]", "result": "binds"}, {"measurement": "binding result", "setting": "[16]", "result": "binds"}, {"measurement": "binding result", "setting": "[13]", "result": "binds"}]}, {"binder": "human TMC1 CBD-2, amino acids 298-359 (first cytoplasmic loop between TM domains 2 and 3) (domain or fragment) KNIGDDGGGDDNTFNFSWKVFTSWDYLIGNPETADNKFNSITMNFKEAITEEKAAQVEENVH", "values": [{"measurement": "binding result", "setting": "[3]", "result": "binds"}, {"measurement": "binding result", "setting": "[17]", "result": "binds"}, {"measurement": "binding result", "setting": "[7]", "result": "binds"}]}, {"binder": "human TMC2 CBD-2 (aa 363-424) (domain or fragment) NTQGSTGEGESDNFTFSFKMFTSWDYLIGNSETADNKYASITTSFKESIVDEQESNKEENIH", "values": [{"measurement": "binding result", "setting": "[1]", "result": "binds"}]}]}
